Data on 125 sequences can be found in the supplement of paper PMC9112550, “Optimization of the antimicrobial peptide Bac7 by deep mutational scanning” (BMC Biology, 2022).
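Also: peptides expressed intracellularly from a pBAD plasmid library in pooled LB shake-flask culture, induced with 0.3% L-arabinose, DNA abundance read by NGS, three biological replicates, DESeq2 with apeglm shrinkage.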

The data set has as its system Escherichia coli TOP10. Put plainly: shrunken log2 fold change of peptide-encoding DNA abundance (4.5 h post-induction vs induction); higher = less antimicrobial activity (less host growth inhibition). Particulars: time post-induction: 4.5 h; library: site-saturation at positions 5, 18, 19, 20.
For RRIRCRPPRLPRPRPRPWTVPRP, the “shrunken log2 fold change” value was -0.145. The value for RRIRNRPPRLPRPRPRPMHHPRP was -0.653; that for RRIRFRPPRLPRPRPRPHYHPRP was -0.834.

On to RRIRFRPPRLPRPRPRPMCGPRP, for which the “shrunken log2 fold change” value is -0.164. The value for RRIRIRPPRLPRPRPRPHLSPRP was -0.0549; that for RRIRMRPPRLPRPRPRPFPCPRP was -0.0872.

For RRIRDRPPRLPRPRPRPSHAPRP, the “shrunken log2 fold change” value was 0.0738. Regarding RRIRMRPPRLPRPRPRPYLRPRP, the “shrunken log2 fold change” value was 0.0522. Then RRIRFRPPRLPRPRPRPPWQPRP, with 0.361; and RRIRARPPRLPRPRPRPVNQPRP, with -0.0386; and RRIRMRPPRLPRPRPRPNKHPRP, with -0.158.

As to RRIRIRPPRLPRPRPRPEMHPRP, the “shrunken log2 fold change” value was -0.328. Turning to RRIRLRPPRLPRPRPRPWDLPRP, the “shrunken log2 fold change” value is -0.00277. The value for RRIRVRPPRLPRPRPRPRHDPRP was 0.129; that for RRIRLRPPRLPRPRPRPCYGPRP was -0.0306; that for RRIRYRPPRLPRPRPRPTDQPRP was -0.175. In the case of RRIRSRPPRLPRPRPRPDQWPRP, the “shrunken log2 fold change” value is -0.0262. The value for RRIRYRPPRLPRPRPRPRTNPRP was -0.492; that for RRIRHRPPRLPRPRPRPWPGPRP was -0.327.

Turning to RRIRWRPPRLPRPRPRPTLWPRP, the “shrunken log2 fold change” value was found to be 0.611.

On to RRIRFRPPRLPRPRPRPIAGPRP, for which the “shrunken log2 fold change” value was determined as 0.0541. For the sequence RRIRDRPPRLPRPRPRPKNFPRP, the “shrunken log2 fold change” value was -0.174.

Take RRIRRRPPRLPRPRPRPGTAPRP: the “shrunken log2 fold change” value was 0.414.

Regarding RRIRWRPPRLPRPRPRPLPVPRP, the “shrunken log2 fold change” value was -0.0992.

As for RRIRFRPPRLPRPRPRPRWAPRP, the “shrunken log2 fold change” value came out at 0.305. As to RRIRHRPPRLPRPRPRPQWAPRP, the “shrunken log2 fold change” value was -0.018. The value for RRIRARPPRLPRPRPRPMVTPRP was 0.21; that for RRIRPRPPRLPRPRPRPPERPRP was 0.322; that for RRIRGRPPRLPRPRPRPQIEPRP was 0.462. With RRIRQRPPRLPRPRPRPPHPPRP, the “shrunken log2 fold change” value came out at 0.548. In the case of RRIRTRPPRLPRPRPRPKTRPRP, the “shrunken log2 fold change” value came out at 0.221. The value for RRIRGRPPRLPRPRPRPLCYPRP was 0.238; that for RRIRTRPPRLPRPRPRPQGNPRP was -0.164.

As for RRIRWRPPRLPRPRPRPQRIPRP, the “shrunken log2 fold change” value came out at 0.107. Consider RRIRLRPPRLPRPRPRPATPPRP, for which the “shrunken log2 fold change” value is 1.05. As for RRIRFRPPRLPRPRPRPGLFPRP, the “shrunken log2 fold change” value was -0.143. For the sequence RRIRSRPPRLPRPRPRPDQLPRP, the “shrunken log2 fold change” value is -0.167. The value for RRIRKRPPRLPRPRPRPILYPRP was -0.505; that for RRIRKRPPRLPRPRPRPQWPPRP was 0.124; that for RRIRRRPPRLPRPRPRPHCFPRP was 0.118. On to RRIRYRPPRLPRPRPRPVNAPRP, for which the “shrunken log2 fold change” value is -0.361. In the case of RRIRYRPPRLPRPRPRPGTSPRP, the “shrunken log2 fold change” value was -0.0454.

In the case of RRIRSRPPRLPRPRPRPILGPRP, the “shrunken log2 fold change” value is -0.016. Then RRIRCRPPRLPRPRPRPVYQPRP, with -0.783; and RRIRSRPPRLPRPRPRPHCFPRP, with 0.111; and RRIRQRPPRLPRPRPRPGTGPRP, with -0.121. As for RRIRYRPPRLPRPRPRPKDNPRP, the “shrunken log2 fold change” value is -0.75. As for RRIRSRPPRLPRPRPRPAEEPRP, the “shrunken log2 fold change” value was found to be 0.164.

Regarding RRIRFRPPRLPRPRPRPKCPPRP, the “shrunken log2 fold change” value is -0.128.

Regarding RRIRIRPPRLPRPRPRPQDMPRP, the “shrunken log2 fold change” value is -0.0502.

In the case of RRIRQRPPRLPRPRPRPILTPRP, the “shrunken log2 fold change” value was -0.955. The value for RRIRHRPPRLPRPRPRPLVQPRP was -0.0987; that for RRIRARPPRLPRPRPRPFNAPRP was -0.307. In the case of RRIRKRPPRLPRPRPRPNPHPRP, the “shrunken log2 fold change” value worked out at 0.188. With RRIRCRPPRLPRPRPRPWRCPRP, the “shrunken log2 fold change” value came out at 0.486. The value for RRIRQRPPRLPRPRPRPCTLPRP was -0.56; that for RRIRPRPPRLPRPRPRPQSCPRP was -0.0478; that for RRIRKRPPRLPRPRPRPYLIPRP was -1.9. Consider RRIRKRPPRLPRPRPRPQRDPRP, for which the “shrunken log2 fold change” value amounted to 0.858. Then RRIRARPPRLPRPRPRPHFQPRP, with 0.0811. RRIRTRPPRLPRPRPRPANDPRP: the “shrunken log2 fold change” value was -0.116.

In the case of RRIRVRPPRLPRPRPRPYYEPRP, the “shrunken log2 fold change” value was -0.632. The value for RRIRNRPPRLPRPRPRPVWGPRP was 0.283; that for RRIRCRPPRLPRPRPRPVRDPRP was 0.238; that for RRIRYRPPRLPRPRPRPAPWPRP was -0.0627. In the case of RRIRLRPPRLPRPRPRPSKYPRP, the “shrunken log2 fold change” value was -0.578.

Turning to RRIRTRPPRLPRPRPRPHCTPRP, the “shrunken log2 fold change” value is -0.298. As for RRIRSRPPRLPRPRPRPRRNPRP, the “shrunken log2 fold change” value amounted to 0.128. RRIRIRPPRLPRPRPRPQAVPRP: the “shrunken log2 fold change” value was -0.0119. The value for RRIRCRPPRLPRPRPRPSLIPRP was -0.286. Turning to RRIRYRPPRLPRPRPRPEKRPRP, the “shrunken log2 fold change” value came to 0.00709. With RRIRSRPPRLPRPRPRPTFSPRP, the “shrunken log2 fold change” value amounted to 0.019. Then RRIRRRPPRLPRPRPRPAECPRP, with -0.00699; and RRIRLRPPRLPRPRPRPQDLPRP, with -0.0513. The value for RRIRFRPPRLPRPRPRPARAPRP was 1.31; that for RRIRIRPPRLPRPRPRPMCDPRP was -0.356; that for RRIRARPPRLPRPRPRPDCPPRP was 0.337.

For RRIRCRPPRLPRPRPRPACDPRP, the “shrunken log2 fold change” value turned out to be 0.389. The value for RRIRNRPPRLPRPRPRPMYVPRP was 0.0786. The value for RRIRCRPPRLPRPRPRPHPPPRP was 0.809; that for RRIRGRPPRLPRPRPRPTMHPRP was 0.715; that for RRIRYRPPRLPRPRPRPDVSPRP was -0.248.

Take RRIRVRPPRLPRPRPRPGESPRP: the “shrunken log2 fold change” value was 0.0694. For RRIRHRPPRLPRPRPRPFCNPRP, the “shrunken log2 fold change” value was 0.00929.

In the case of RRIRCRPPRLPRPRPRPWESPRP, the “shrunken log2 fold change” value worked out at 0.0539. The value for RRIRLRPPRLPRPRPRPLLHPRP was -0.0703; that for RRIRLRPPRLPRPRPRPGTWPRP was 0.0714; that for RRIRNRPPRLPRPRPRPGGQPRP was 0.0599. Then RRIRHRPPRLPRPRPRPKTNPRP, with -0.376; and RRIRPRPPRLPRPRPRPIKHPRP, with -0.31. As for RRIRKRPPRLPRPRPRPTCVPRP, the “shrunken log2 fold change” value turned out to be 0.241. As to RRIRMRPPRLPRPRPRPIAEPRP, the “shrunken log2 fold change” value is 3.46.

Consider RRIRMRPPRLPRPRPRPIFNPRP, for which the “shrunken log2 fold change” value was -0.257.

As for RRIRNRPPRLPRPRPRPGPPPRP, the “shrunken log2 fold change” value was determined as 0.581. Consider RRIRLRPPRLPRPRPRPSINPRP, for which the “shrunken log2 fold change” value is -0.32. For the sequence RRIRLRPPRLPRPRPRPPIHPRP, the “shrunken log2 fold change” value was -0.117. Turning to RRIRQRPPRLPRPRPRPHFVPRP, the “shrunken log2 fold change” value was -0.208. Then RRIRERPPRLPRPRPRPLHKPRP, with -0.0653; and RRIRMRPPRLPRPRPRPPKSPRP, with 0.478.

In the case of RRIRVRPPRLPRPRPRPAINPRP, the “shrunken log2 fold change” value was -0.259.

As to RRIRIRPPRLPRPRPRPHQSPRP, the “shrunken log2 fold change” value was -0.406. The value for RRIRVRPPRLPRPRPRPLPCPRP was -0.12. The value for RRIRSRPPRLPRPRPRPRAGPRP was 1.46. Then RRIRVRPPRLPRPRPRPCGAPRP, with 0.279. Take RRIRKRPPRLPRPRPRPSTPPRP: the “shrunken log2 fold change” value was determined as 0.0478.

Regarding RRIRVRPPRLPRPRPRPPAAPRP, the “shrunken log2 fold change” value worked out at 0.397. Then RRIRVRPPRLPRPRPRPEDGPRP, with -0.263. With RRIRCRPPRLPRPRPRPKVMPRP, the “shrunken log2 fold change” value was -0.184. For the sequence RRIRCRPPRLPRPRPRPRDSPRP, the “shrunken log2 fold change” value was -0.0484.

RRIRHRPPRLPRPRPRPKQNPRP: the “shrunken log2 fold change” value came to 0.139. The value for RRIRFRPPRLPRPRPRPRPDPRP was 0.282; that for RRIRPRPPRLPRPRPRPTFMPRP was 0.0861. Then RRIRLRPPRLPRPRPRPWVYPRP, with 0.0113; and RRIRMRPPRLPRPRPRPNENPRP, with 0.314. The value for RRIRNRPPRLPRPRPRPETYPRP was -0.554; that for RRIRDRPPRLPRPRPRPRDTPRP was 0.575.

In the case of RRIRPRPPRLPRPRPRPPSWPRP, the “shrunken log2 fold change” value was 0.54. Turning to RRIRMRPPRLPRPRPRPIWPPRP, the “shrunken log2 fold change” value turned out to be 0.769. With RRIRHRPPRLPRPRPRPYESPRP, the “shrunken log2 fold change” value is -0.0531.

With RRIRTRPPRLPRPRPRPNHYPRP, the “shrunken log2 fold change” value was -0.679. The value for RRIRARPPRLPRPRPRPIDAPRP was 0.0272; that for RRIRIRPPRLPRPRPRPPMDPRP was -0.372; that for RRIRSRPPRLPRPRPRPVHIPRP was -0.124. The value for RRIRGRPPRLPRPRPRPMHFPRP was -0.0109. Then RRIRNRPPRLPRPRPRPIPAPRP, with -0.0451.
